target: insulin receptor (mouse (endogenous in 3T3-L1)); assay: co-IP; lysates of differentiated, serum-deprived 3T3-L1 adipocytes, untreated or treated with 100 nM Ang II for 60 min (for PKCβII also 10 µM DuP 753 for 30 min before Ang II); lysis in 50 mM Tris-HCl, 150 mM NaCl, 1% Nonidet P-40, 10% glycerol, 2 mM EDTA, pH 7.4; IR precipitated with anti-IR-β polyclonal antibody and protein A/G PLUS-Agarose; blots probed with anti-PKCα, -βI, -βII or -δ and quantified by densitometry
Sequence (P15208 28-1372): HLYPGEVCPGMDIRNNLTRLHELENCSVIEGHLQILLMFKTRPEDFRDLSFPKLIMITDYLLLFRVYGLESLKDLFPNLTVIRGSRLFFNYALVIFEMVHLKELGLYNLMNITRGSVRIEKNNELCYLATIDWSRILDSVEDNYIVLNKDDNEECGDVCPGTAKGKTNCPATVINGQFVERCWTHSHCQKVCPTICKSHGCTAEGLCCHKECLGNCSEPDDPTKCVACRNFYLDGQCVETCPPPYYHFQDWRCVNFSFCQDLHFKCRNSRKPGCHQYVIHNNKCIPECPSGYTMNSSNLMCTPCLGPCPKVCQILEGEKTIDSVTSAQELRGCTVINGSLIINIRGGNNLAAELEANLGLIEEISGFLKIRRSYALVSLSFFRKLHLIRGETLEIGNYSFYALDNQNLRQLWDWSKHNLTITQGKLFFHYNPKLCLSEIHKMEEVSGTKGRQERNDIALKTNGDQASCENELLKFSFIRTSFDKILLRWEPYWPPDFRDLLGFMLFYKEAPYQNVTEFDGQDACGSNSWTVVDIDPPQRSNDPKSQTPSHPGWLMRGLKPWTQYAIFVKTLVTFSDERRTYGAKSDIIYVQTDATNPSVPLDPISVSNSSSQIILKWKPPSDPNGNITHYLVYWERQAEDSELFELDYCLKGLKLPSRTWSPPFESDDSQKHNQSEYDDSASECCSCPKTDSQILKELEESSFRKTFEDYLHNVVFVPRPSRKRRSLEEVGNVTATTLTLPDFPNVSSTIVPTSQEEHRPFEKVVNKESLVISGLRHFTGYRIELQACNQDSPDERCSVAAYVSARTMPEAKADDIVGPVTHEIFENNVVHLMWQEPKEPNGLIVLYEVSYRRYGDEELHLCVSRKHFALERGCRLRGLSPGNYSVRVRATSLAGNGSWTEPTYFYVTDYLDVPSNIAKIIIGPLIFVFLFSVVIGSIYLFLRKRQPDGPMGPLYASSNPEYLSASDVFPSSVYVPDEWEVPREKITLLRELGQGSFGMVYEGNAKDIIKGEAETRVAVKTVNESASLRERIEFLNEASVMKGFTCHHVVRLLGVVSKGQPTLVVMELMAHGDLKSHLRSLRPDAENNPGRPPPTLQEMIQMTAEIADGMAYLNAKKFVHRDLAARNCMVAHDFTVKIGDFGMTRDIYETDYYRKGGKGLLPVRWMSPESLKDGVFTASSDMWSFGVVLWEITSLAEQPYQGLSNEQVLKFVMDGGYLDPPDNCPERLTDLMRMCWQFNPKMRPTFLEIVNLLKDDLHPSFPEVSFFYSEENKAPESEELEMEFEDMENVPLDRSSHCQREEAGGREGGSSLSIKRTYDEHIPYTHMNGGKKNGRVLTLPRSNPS

Row | fold increase of the association with Ang II over control cells | Substance
1 | 2 fold | PKCα (from UniProt P20444 1-672) (enzyme)
2 | 1.2 fold | PKCβI (from UniProt P68404 1-671) (enzyme)
3 | 4 fold | PKCβII (from UniProt P68404-2 1-673) (enzyme)
4 | 1.5 fold | PKCδ (from UniProt P28867 1-674) (enzyme)

From paper PMC9181642
